Experimental data taken from patent US20190113512A1 (MIT, published 2019).
Residue numbers refer to the chain shown, from its start.

Key:
H6BA = H6BA (Mycobacterium tuberculosis); experiment: yeast-surface display flow cytometry, specificity test
H2BA [1] = biological target: T1, H2BA (Mycobacterium tuberculosis); experiment: as above
H7BA = H7BA (Mycobacterium tuberculosis); experiment: as above
H1BA = H1BA (Mycobacterium tuberculosis); experiment: as above
H2BA [2] = biological target: T1, H2BA; experiment: yeast-surface display; validated conditions not given
[3] = biological target: T2, streptavidin Alexa Fluor 647 (UniProt P22629 37-163); experiment: yeast-surface display flow cytometry, secondary reagent alone, geometric MFI
T2 construct: also called SA-AF647; streptavidin-AF 647
T2 sequence (P22629 37-163 limits assumed): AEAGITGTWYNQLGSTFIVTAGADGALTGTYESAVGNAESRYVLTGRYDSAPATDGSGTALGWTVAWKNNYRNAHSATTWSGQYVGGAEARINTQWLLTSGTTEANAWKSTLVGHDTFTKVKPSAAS

B1: rcSso7d.H1BA.3 (designed binder)
chain: MATVKFTYQGEEKQVDISKIKHVIRNGQYIIFAYDEGGGAYGGGWVSEKDAPKELLQMLEKQ
notes: also called 1.E2.2
% positive (H6BA): 0.9%
% positive (H2BA [1]): 0.9%
% positive (H7BA): 1.3%
% positive (H1BA): 71.5%

B2: rcSso7d.H2BA.2 (designed binder)
chain: B1 chain with H22Y, I24G, N26W, Y29N, I31G, G43Y, W45G
binding result (H2BA [2]): binds

B3: rcSso7d.Rv1656 (yeast-surface displayed) (designed binder)
chain: MATVKFTYQGEEKQVDISKIKWVRRYGQYIGFSYDEGGGAWGKGYVSEKDAPKELLQMLEKQ
notes: also called rcSso7d.H4.2; H4.2
binding result [3]: no binding
